Earlier results as cited in patent US12065466B2, “Methods and compositions for protein sequencing” (Quantum-Si Incorporated, priority 2020, dated 2024).

B1: PS508: UBR-box domain homolog, SEQ ID NO: 136 (protein)
chain: MLCGRVFKEGETVYSCRDCAIDPTCVLCIECFQKSVHKSHRYKMHASAGGGFCDCGDLEAWKTGPCCSQHDP
modifications: Anabarilius graham
B2: PS526: UBR-box domain homolog, SEQ ID NO: 154 (protein, listed as Maylandia zebra)
chain: MLCGRVFKEGETVYSCRDCAIDPTCVLCMDCFQDSVHKSHRYKMHASSGGGFCDCGDVEAWKIGPYCSKHDP
B3: PS512: UBR-box domain homolog, SEQ ID NO: 140 (protein, listed as Mastacembelus armatus)
chain: MLCGRVFKEGETVYSCRDCAIDPTCVLCMDCFQDSVHKSHRYKMHASAGGGFCDCGDVEAWKIGPYCSKHDP
B4: PS520: UBR-box domain homolog, SEQ ID NO: 148 (protein, listed as Monopterus albus)
chain: MLCGRVFKEGETVYSCRDCAIDPTCVLCMDCFQDSVHKSHRYKMHASSGGGFCDCGDVEAWKIGPCCSKHDP
B5: PS519: UBR-box domain homolog, SEQ ID NO: 147 (protein, listed as Manduca sexta)
chain: MLCGRVFKQGEPAYSCRECGMDNTCVLCVECFKVSAHRHHKYKMGQSGGGGCCDCGDTEAWKRDPFCELHAA
B6: PS541: UBR-box domain homolog, SEQ ID NO: 170 (protein)
chain: MRCGHIFRAGEATYRCITCAADDTCVLCSRCFDASDHTGHQYQISLSSGNCGCCDCGDEEAWRLPLFCAIHTD
modifications: Aspergillus neoniger
B7: PS536: UBR-box domain homolog, SEQ ID NO: 164 (protein, listed as Aphis gossypii)
chain: MVCGRVFKMGEPTYNCRECGMDSTCVLCVDCFKRSPHKNHKYKMGTSYGGGCCDCGDVEAWKHDPYCQTHKL
B8: PS542: UBR-box domain homolog, SEQ ID NO: 171 (protein, listed as Trichuris suis)
chain: MRCNHVFANGEATYSCRGCAADPTCVLCASCFELSAHKEHKYMITTSSGTGYCDCGDPEAWKADPFCQQHQP
B9: PS530: UBR-box domain homolog, SEQ ID NO: 158 (protein, listed as Acropora millepora)
chain: MLCGKVFKVGEPTYSCRDCGYDNTCVLCINCFQKSIHKNHHYKMNTSGGGGVCDCGDVEAWKEGEACEIHQQ
B10: PS524: UBR-box domain homolog, SEQ ID NO: 152 (protein, listed as Drosophila ficusphila)
chain: MVCGKVFKNGEPTYSCRECGVDPTCVLCVNCFKRSAHRFHKYKMSTSGGGGCCDCGDDEAWKKDHYCQLHLA
B11: PS531: UBR-box domain homolog, SEQ ID NO: 159 (protein, listed as Musca domestica)
chain: MVCGKVFKIGEPTYSCRECGMDQTCVLCVNCFKQSAHRYHKYKMSTSGGGGCCDCGDEEAWKKDHYCEEHLR
B12: PS525: UBR-box domain homolog, SEQ ID NO: 153 (protein, listed as Mus musculus)
chain: MLCGKVFKSGETTYSCRDCAIDPTCVLCMDCFQSSVHKNHRYKMHTSTGGGFCDCGDTEAWKTGPFCVDHEP
B13: PS529: UBR-box domain homolog, SEQ ID NO: 157 (protein)
chain: MLCGKVFKGGETTYSCRDCAIDPTCVLCMDCFQNSIHKNHRYKMHTSTGGGFCDCGDTEAWKTGPLCANHEP
modifications: Chelonia mydas
B14: PS511: UBR-box domain homolog, SEQ ID NO: 139 (protein, listed as Habropoda laboriosa)
chain: MICGKVFKMGEATYSCKECGVDPTCVLCADCFKQSAHRHHKYRMGTSSGGGFCDCGDIEAWKKEPFCNTHLA
B15: PS539: UBR-box domain homolog, SEQ ID NO: 168 (protein, listed as Kazachstania africana)
chain: MQTSFTHKGRNCGRKFKVGEPLYRCHECGFDDTCVLCIHCFNPADHENHHIYTDICNDFTSGICDCGDTEAWNGDLHCKAEEI
B16: PS517: UBR-box domain homolog, SEQ ID NO: 145 (protein)
chain: MMCGRVFKMGEPTYSCRECGVDSTCVLCVGCFQQSAHRDHKYKMGTSGGGGCCDCGDTEAWKRDPFCEIHMV
modifications: Harpegnathos saltator
B17: PS518: UBR-box domain homolog, SEQ ID NO: 146 (protein, listed as Nilaparvata lugens)
chain: MVCGRVFKMGEPSYHCRECGMDATCVLCVDCFKKSSHRNHKYKMGTSIGGGCCDCGDVEAWKTEPYCEVHIA
B18: PS537: UBR-box domain homolog, SEQ ID NO: 165 (protein, listed as Aedes aegypti)
chain: MVCGRVFKIGEPTYSCRECSMDPTCVLCSSCFKKSSHRLHKYKMSTSGGGGCCDCGDHEAWKRDPSCEEHAV
B19: PS507: UBR-box domain homolog, SEQ ID NO: 135 (protein, listed as Sparassis crispa)
chain: MPCGHIFKKGESCFRCKDCALDDSCVLCSKCFEATDHANHNVSFFIAQQSGGCCDCGDIEAWLVPIDCPFHPV
B20: PS516: UBR-box domain homolog, SEQ ID NO: 144 (protein)
chain: MLCGKVFKTGEPTYSCRDCANDPTCVLCIDCFQNGAHKNHRYKMNTSGGGGYCDCGDQEAWTSHPFCNLHSP
modifications: Crassostrea gigas
B21: PS523: UBR-box domain homolog, SEQ ID NO: 151 (protein)
chain: MAKSHRHTGRNCGRAFQPGEPLYRCQECAYDDTCVLCISCFNPDDHVNHHVSTHICNELHDGICDCGDAEAWNVPLHCKAEED
modifications: Saccharomycetaceae sp. Ashbya aceri
B22: PS510: UBR-box domain homolog, SEQ ID NO: 138 (protein, listed as Camponotus floridanus)
chain: MICGRMFKMGEPTYSCRQCGMDSTCVLCVDCFKQSAHRNHKYKMGTSSGGGCCDCGDTEAWKNEPFCKIHLA
B23: PS515: UBR-box domain homolog, SEQ ID NO: 143 (protein, listed as Wasmannia auropunctata)
chain: MICGKMFKIGEPTYSCRECGMDSTCVLCVDCFKQSAHRNHKYKMGTSSGGGCCDCGDTEAWKKEPFCKTHVV
B24: PS514: UBR-box domain homolog, SEQ ID NO: 142 (protein, listed as Tribolium castaneum)
chain: MVCGRVFKLGEPTYSCRECGMDNTCVLCVNCFKNSEHRFHKYKMGTSQGGGCCDCGDVEAWKKAPFCDVHIA
B25: PS25: SEQ ID NO: 167 (protein, listed as Saccharomyces cerevisiae)
chain: MGSVHKHTGRNCGRKFKIGEPLYRCHECGCDDTCVLCIHCFNPKDHVNHHVCTDICTEFTSGICDCGDEEAWNSPLHCKAEEQ
B26: PS513: UBR-box domain homolog, SEQ ID NO: 141 (protein, listed as Pyrenophora seminiperda)
chain: MPCGHIFKNGEATYRCKTCTADDTCVLCARCFDASDHEGHQVFVSVSPGNSGCCDCGDDEAWVRPVHCNIHSA
B27: PS540: UBR-box domain homolog, SEQ ID NO: 169 (protein, listed as Clathrospora elynae)
chain: MPCGHIFKNGEATYRCKTCTADDTCVLCARCFDASDHEGHQVFVSVSPGNSGCCDCGDDEAWVRPVHCNMHSA
B28: PS534: UBR-box domain homolog, SEQ ID NO: 162 (protein)
chain: MKCGHIFRKGEVFYRCKTCSVDSNSALCVKCFRATSHKDHETSFTVSAGSGGCCDCGNAAAWIGDVSCKIHSH
modifications: Schizosaccharomyces pombe
B29: PS532: UBR-box domain homolog, SEQ ID NO: 160 (protein, listed as Schizosaccharomyces cryophilus)
chain: MSCGRIFKKGEVFYRCKTCSVDSNSALCVKCFRATDHHGHETSFTISAGSGGCCDCGNSAAWIRDMPCKIHNR
B30: PS509: UBR-box domain homolog, SEQ ID NO: 137 (protein)
chain: MICGHGFKTGEPTYSCRDCATDPTCVLCISCFQKSPHREHRYKMSASGGGGYCDCGDPEAWKIEPFCEQHKP
modifications: Lottia gigantean
B31: PS533: UBR-box domain homolog, SEQ ID NO: 161 (protein, listed as Contarinia nasturtii)
chain: MVCGRVFKMNEPFYSCRECGMDPTCVLCVNCFKQSAHRHHKYKMGTSAGGGCCDCGDNEAWKQDHYCDEHTK
B32: PS527: UBR-box domain homolog, SEQ ID NO: 155 (protein, listed as Mizuhopecten yessoensis)
chain: MLCGKVFKYGEPTYSCRDCANDPTCVLCIDCFQKSAHKKHRYKMSTSGGGGYCDCGDSEAWKTAPFCSNHKA
B33: PS521: UBR-box domain homolog, SEQ ID NO: 149 (protein)
chain: MLCGRVFRSGEPTYSCRDCAVDPTCVLCIDCFNNGAHRKHKYRMSTSSGGGYCDCGDKEAWKTDPLCEIHRK
modifications: Lingula anatine

Tested on: amino acid at a terminal position of a polypeptide
Details: Table 2; amino acid identity at a terminal position (phosphotyrosine also internal); inferred from literature and/or demonstrated by the inventors; cited from earlier work

Binding Pref., K, R, H:
B1
B2
B3
B4
B5
B6
B7
B8
B9
B10
B11
B12
B13
B14
B15
B16
B17
B18
B19
B20
B21
B22
B23
B24
B25
B26
B27
B28
B29
B30
B31
B32
B33
